B1: pH-gated potassium channel KcsA (natural protein)
chain: SALHWRAAGAATVLLVIVLLAGSYLAVLAERGAPGAQLITYPRALWWSVETATTVGYGDLYPVTLWGRLVAVVVMVAGITSFGLVTAALATWFVGREQERRGHFVRHSEKAAEEAYTRTTRALHERFDRLERMLDDNRR
modifications: in some samples uniformly 15N, 2H isotope labeled
notes: pH-gated potassium channel KcsA; theoretical mass of the construct 21.33 kDa (22.70 kDa labeled); The printed mass (21.33 kDa) is larger than the natural chain, so tags or extra residues beyond the StrepII tag may be present; source: cell-free (CECF, E. coli A19 lysate), co-translationally inserted into nanodiscs, purified (Streptactin)
B2: Phospho-N-acetylmuramyl-pentapeptide-transferase E.coli (enzyme, E. coli, UniProt P0A6W3 1-360, looked up)
chain: MLVWLAEHLVKYYSGFNVFSYLTFRAIVSLLTALFISLWMGPRMIAHLQKLSFGQVVRNDGPESHFSKRGTPTMGGIMILTAIVISVLLWAYPSNPYVWCVLVVLVGYGVIGFVDDYRKVVRKDTKGLIARWKYFWMSVIALGVAFALYLAGKDTPATQLVVPFFKDVMPQLGLFYILLAYFVIVGTGNAVNLTDGLDGLAIMPTVFVAGGFALVAWATGNMNFASYLHIPYLRHAGELVIVCTAIVGAGLGFLWFNTYPAQVFMGDVGSLALGGALGIIAVLLRQEFLLVIMGGVFVVETLSVILQVGSFKLRGQRIFRMAPIHHHYELKGWPEPRVIVRFWIISLMLVLIGLATLKVR
notes: MraY translocase of E. coli; theoretical mass of the construct 42.22 kDa; Dimer in DMPG and in DMPC/DMPG nanodiscs, monomer in DMPC nanodiscs; also called Ec-MraY; E. coli MraY; source: cell-free (CECF, E. coli A19 lysate), co-translationally inserted into nanodiscs, purified (Streptactin)
B3: Human proton channel - voltage sensing domain (domain or fragment, UniProt Q96D96 75-223, looked up)
chain: APAPGPAPRAPLDFRGMLRKLFSSHRFQVIIICLVVLDALLVLAELILDLKIIQPDKNNYAAMVFHYMSITILVFFMMEIIFKLFVFRLEFFHHKFEILDAVVVVVSFILDIVLLFQEHQFEALGLLILLRLWRVARIINGIIISVKTR
modifications: in some samples uniformly 15N, 2H isotope labeled
notes: voltage-sensing domain of the human proton channel Hv1, residues 75-223; lacks the intracellular domain; theoretical mass of the construct 20.80 kDa; Construct in pET15b described in Li et al., 2015; a C-terminal StrepII tag was added here by QuickChange mutagenesis; also called hHv1-VSD; hHv-1-VSD
B4: Phospho-N-acetylmuramyl-pentapeptide-transferase B.subtilis (enzyme, B. subtilis, UniProt Q03521 1-324, looked up)
chain: MLEQVILFTILMGFLISVLLSPILIPFLRRLKFGQSIREEGPKSHQKKSGTPTMGGVMIILSIIVTTIVMTQKFSEISPEMVLLLFVTLGYGLLGFLDDYIKVVMKRNLGLTSKQKLIGQIIIAVVFYAVYHYYNFATDIRIPGTDLSFDLGWAYFILVLFMLVGGSNAVNLTDGLDGLLSGTAAIAFGAFAILAWNQSQYDVAIFSVAVVGAVLGFLVFNAHPAKVFMGDTGSLALGGAIVTIAILTKLEILLVIIGGVFVIETLSVILQVISFKTTGKRIFKMSPLHHHYELVGWSEWRVVVTFWAAGLLLAVLGIYIEVWL
notes: MraY translocase of B. subtilis; theoretical mass of the construct 37.88 kDa; also called Bs-MraY; B. subtilis MraY; source: cell-free (CECF, E. coli A19 lysate), co-translationally inserted into nanodiscs, purified (Streptactin)
B5: Multidrug transporter EmrE (natural protein)
chain: MNPYIYLGGAILAEVIGTTLMKFSEGFTRLWPSVGTIICYCASFWLLAQTLAYIPTGIAYAIWSGVGIVLISLLSWGFFGQRLDLPAIIGMMLICAGVLIINLLSRSTPH
notes: small multidrug transporter EmrE; theoretical mass of the construct 13.00 kDa; source: cell-free (CECF, E. coli A19 lysate), co-translationally inserted into nanodiscs, purified (Streptactin)

What was measured:
[1] = biological target: Proteorhodopsin (green variant); assay: native MS; LILBID-MS of PR synthesized in the presence of DH7PC and GDN and purified with 0.1% DH7PC; no nanodiscs
[2] = biological target: Proteorhodopsin (green variant); assay: native MS; LILBID-MS of the membrane protein in MSP1E3D1 (DMPG) nanodiscs; 50 mM ammonium acetate pH 6.8; anionic mode; laser pulse energy between 9.5 and 23 mJ; unlabeled and (KcsA) 15N, 2H labeled samples
[3] = biological target: the molecule itself; assay: as above
[4] = biological target: the molecule itself; assay: native MS; LILBID-MS of hHv1-VSD in nanodiscs of MSP1D1ΔH5 (19.49 kDa, His6-tag cleaved); unlabeled and 15N, 2H labeled samples

Row | Molecule | stoichiometry N [3] | further results
1 | Proteorhodopsin (green variant) (natural protein) |  | stoichiometry N [1]: 2; stoichiometry N [2]: < 6
2 | B1 | 4 | 
3 | B2 | 2 | 
4 | B3 |  | stoichiometry N [4]: 2
5 | B4 | 2 | 
6 | B5 | 2 | 

Reference: paper PMC5291076, “Analyzing native membrane protein assembly in nanodiscs by combined non-covalent mass spectrometry and synthetic biology” (eLife, 2017)
